Assay [1] concerns the target T1, flag-tagged wild-type Gli1 (human, UniProt P08151 1-1106).
T1 construct: Transiently expressed in BE3 cells without TNFα stimulation; also called flag-Gli1WT; flag-Gli1; not shown: flag tag from vector p3flag-CMV10
T1 sequence (looked up): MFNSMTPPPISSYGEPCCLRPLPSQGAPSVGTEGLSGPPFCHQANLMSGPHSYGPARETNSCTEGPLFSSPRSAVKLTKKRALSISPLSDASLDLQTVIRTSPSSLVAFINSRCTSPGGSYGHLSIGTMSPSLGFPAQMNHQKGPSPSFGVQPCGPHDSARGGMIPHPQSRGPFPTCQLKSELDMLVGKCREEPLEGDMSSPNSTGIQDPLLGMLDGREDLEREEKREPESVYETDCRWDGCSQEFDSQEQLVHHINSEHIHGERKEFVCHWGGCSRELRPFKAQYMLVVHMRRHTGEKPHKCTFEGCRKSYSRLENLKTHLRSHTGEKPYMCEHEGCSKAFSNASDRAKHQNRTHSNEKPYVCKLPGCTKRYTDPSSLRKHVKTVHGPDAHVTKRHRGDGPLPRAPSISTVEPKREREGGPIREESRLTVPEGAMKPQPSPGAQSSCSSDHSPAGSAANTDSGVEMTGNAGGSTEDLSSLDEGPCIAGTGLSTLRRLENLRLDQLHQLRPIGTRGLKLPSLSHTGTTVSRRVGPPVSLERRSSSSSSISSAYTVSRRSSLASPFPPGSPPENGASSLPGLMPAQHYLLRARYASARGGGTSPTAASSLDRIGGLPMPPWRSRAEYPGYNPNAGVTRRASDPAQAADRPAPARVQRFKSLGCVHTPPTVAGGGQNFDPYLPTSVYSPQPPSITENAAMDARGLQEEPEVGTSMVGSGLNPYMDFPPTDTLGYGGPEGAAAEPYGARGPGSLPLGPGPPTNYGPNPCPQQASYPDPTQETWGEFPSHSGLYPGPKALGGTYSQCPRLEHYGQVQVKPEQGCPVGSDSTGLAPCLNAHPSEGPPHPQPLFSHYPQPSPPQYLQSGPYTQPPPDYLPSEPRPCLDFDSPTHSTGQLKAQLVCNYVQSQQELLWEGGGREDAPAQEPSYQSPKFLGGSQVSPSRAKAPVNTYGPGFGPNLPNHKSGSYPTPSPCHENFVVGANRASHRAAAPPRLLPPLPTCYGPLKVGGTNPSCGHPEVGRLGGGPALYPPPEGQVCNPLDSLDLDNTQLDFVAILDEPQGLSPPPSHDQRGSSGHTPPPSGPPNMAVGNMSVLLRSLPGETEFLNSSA
In words: IP-Western, flag-tagged Gli1WT transfected into BE3 cells.

The target in assay [2] is T2, flag-tagged Gli1S84E (human, UniProt P08151 1-1106).
T2 construct: not shown: flag tag from vector p3flag-CMV10
T2 sequence (looked up): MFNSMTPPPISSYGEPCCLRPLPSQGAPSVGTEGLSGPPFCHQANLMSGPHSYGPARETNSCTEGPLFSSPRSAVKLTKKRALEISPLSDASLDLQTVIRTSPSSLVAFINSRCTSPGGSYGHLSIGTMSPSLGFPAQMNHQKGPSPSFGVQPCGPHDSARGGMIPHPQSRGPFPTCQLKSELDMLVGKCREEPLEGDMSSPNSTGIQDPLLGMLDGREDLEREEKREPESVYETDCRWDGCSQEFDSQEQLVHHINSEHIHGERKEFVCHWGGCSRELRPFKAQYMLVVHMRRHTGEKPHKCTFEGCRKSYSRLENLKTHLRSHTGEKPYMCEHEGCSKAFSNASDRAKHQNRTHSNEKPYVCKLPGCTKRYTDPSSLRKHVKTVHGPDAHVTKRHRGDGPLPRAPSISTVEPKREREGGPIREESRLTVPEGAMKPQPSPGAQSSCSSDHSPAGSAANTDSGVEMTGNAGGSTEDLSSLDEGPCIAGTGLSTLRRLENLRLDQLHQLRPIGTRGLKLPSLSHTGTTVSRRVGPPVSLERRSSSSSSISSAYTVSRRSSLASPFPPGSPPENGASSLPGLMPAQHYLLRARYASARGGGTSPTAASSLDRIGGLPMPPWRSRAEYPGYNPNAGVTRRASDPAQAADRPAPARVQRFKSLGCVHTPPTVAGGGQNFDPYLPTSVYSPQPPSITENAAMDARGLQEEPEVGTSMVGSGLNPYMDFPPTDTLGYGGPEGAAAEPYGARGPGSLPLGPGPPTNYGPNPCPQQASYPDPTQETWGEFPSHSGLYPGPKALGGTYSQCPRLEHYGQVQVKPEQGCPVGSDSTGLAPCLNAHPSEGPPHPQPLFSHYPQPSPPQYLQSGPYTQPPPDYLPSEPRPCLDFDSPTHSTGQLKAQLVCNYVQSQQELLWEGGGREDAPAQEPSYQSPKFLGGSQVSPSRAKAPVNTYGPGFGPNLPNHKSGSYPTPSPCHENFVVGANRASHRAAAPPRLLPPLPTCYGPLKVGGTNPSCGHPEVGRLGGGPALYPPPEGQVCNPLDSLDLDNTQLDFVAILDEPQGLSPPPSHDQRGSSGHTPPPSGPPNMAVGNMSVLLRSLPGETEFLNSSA
In words: IP-Western, flag-tagged Gli1S84E transfected into BE3 cells. The method, then: FIGS. 13A-13K. related to FIG. 5. […] FIG. 13A. Luciferase assay of Gli reporter in the stable clones treated by TNFα alone (5 ng/mL) or TNFα plus rapamycin (100 nM). Error bars represent SD (n=3). FIG. 13B. Gli1 immunofluorescence staining in several BE3 stable clones with TNFα treatment. Scale bar=100 μm for original picture and 25 μm for inset. FIG. 13C. The regulation of p-Gli1 by TNFα alone or together with rapamycin (10, 50, and 100 nM) in the BE3 stable clone. FIG. 13D. MTT assay of the various Gli1 stable clones. All cells were counted, and then 3,000 cells were seeded in each well of a 96-well plate. Error bars represent SD (n=3). FIG. 13E. Soft-agar assay of the various Gli1 stable clones. All cells were counted, and then 1,000 cells were mixed with agarose for each well of a 24-well plate. Left, representative microscopic images. Right, quantitation of colony formation. Error bars represent SD (n=3). FIG. 13F. Invasion assay of the various Gli1 stable clones. All cells were counted, and then 1,000 cells were seeded on matrigel in transwells. Left, representative microscopic images from the bottom side of transwell membranes. Right, quantitation of invasive cells. Error bars represent SD (n=3). FIGS. 13G-13I. The assays of MTT (G), soft agar (H), and invasion (I) using the BE3 stable clones treated with TNFα.

B1: SuFu (other, human, UniProt Q9UMX1 1-484, looked up)
chain: MAELRPSGAPGPTAPPAPGPTAPPAFASLFPPGLHAIYGECRRLYPDQPNPLQVTAIVKYWLGGPDPLDYVSMYRNVGSPSANIPEHWHYISFGLSDLYGDNRVHEFTGTDGPSGFGFELTFRLKRETGESAPPTWPAELMQGLARYVFQSENTFCSGDHVSWHSPLDNSESRIQHMLLTEDPQMQPVQTPFGVVTFLQIVGVCTEELHSAQQWNGQGILELLRTVPIAGGPWLITDMRRGETIFEIDPHLQERVDKGIETDGSNLSGVSAKCAWDDLSRPPEDDEDSRSICIGTQPRRLSGKDTEQIRETLRRGLEINSKPVLPPINPQRQNGLAHDRAPSRKDSLESDSSTAIIPHELIRTRQLESVHLKFNQESGALIPLCLRGRLLHGRHFTYKSITGDMAITFVSTGVEGAFATEEHPYAAHGPWLQILLTEEFVEKMLEDLEDLTSPEEFKLPKEYSWPEKKLKVSILPDVVFDSPLH
notes: also called suppressor of fused
For B1, the binding result in assay [1] and in assay [2] was “binds” in each case.

Values taken from US20150017651A1 (University of Texas, published 2015).
